Publication PMC11931385, “Structural and functional analysis of cancer-associated missense variants in the retinoblastoma protein pocket domain” (The Journal of Biological Chemistry, 2025)
No end group written: not given here. TMR = tetramethyl rhodamine dye

Experiments:
Experiment in all cases: fluorescence polarisation; 25 °C; unlabeled Rb^P titrated against 1.5 nM TMR-E2F1^TD or 7.5 nM TMR-E7^LxCxE; 25 mM Tris pH 8.0, 200 mM NaCl, 1 mM DTT, 0.1% Tween-20; 2 min incubation; quadratic fit; apparent Kd for the variants, Kd for WT
Conditions in all cases: both partners purified
Rb^P K462T = target: T1, Rb^P K462T (human, UniProt P06400 380-788, K462T)
T1 construct: also called variant 9
T1 sequence (looked up): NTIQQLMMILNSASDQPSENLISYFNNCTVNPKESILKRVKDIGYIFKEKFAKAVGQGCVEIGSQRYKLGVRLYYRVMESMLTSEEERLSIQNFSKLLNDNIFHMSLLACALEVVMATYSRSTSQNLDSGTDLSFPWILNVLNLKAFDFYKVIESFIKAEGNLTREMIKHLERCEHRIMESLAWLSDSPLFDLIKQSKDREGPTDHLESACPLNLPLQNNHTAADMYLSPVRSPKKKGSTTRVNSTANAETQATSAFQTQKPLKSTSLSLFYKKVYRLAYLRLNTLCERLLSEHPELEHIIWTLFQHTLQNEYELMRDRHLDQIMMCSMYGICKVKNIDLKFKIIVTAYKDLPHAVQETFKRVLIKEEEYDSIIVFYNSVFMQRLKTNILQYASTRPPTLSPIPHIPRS

Rb^P S474R = target: T2, Rb^P S474R (human, UniProt P06400 380-788, S474R)
T2 construct: also called variant 13
T2 sequence (looked up): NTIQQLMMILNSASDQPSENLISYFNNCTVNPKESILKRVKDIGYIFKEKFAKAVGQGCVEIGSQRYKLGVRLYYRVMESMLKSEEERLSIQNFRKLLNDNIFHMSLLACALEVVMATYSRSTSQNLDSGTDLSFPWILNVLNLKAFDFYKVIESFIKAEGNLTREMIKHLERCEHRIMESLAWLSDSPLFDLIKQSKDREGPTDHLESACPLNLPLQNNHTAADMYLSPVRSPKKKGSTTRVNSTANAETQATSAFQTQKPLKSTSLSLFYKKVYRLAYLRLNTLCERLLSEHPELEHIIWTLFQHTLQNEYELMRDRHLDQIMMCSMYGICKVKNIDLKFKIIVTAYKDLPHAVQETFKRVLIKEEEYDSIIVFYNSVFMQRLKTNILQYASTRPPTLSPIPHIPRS

Rb^P Y606C = target: T3, Rb^P Y606C (human, UniProt P06400 380-788, Y606C)
T3 construct: also called variant 37
T3 sequence (looked up): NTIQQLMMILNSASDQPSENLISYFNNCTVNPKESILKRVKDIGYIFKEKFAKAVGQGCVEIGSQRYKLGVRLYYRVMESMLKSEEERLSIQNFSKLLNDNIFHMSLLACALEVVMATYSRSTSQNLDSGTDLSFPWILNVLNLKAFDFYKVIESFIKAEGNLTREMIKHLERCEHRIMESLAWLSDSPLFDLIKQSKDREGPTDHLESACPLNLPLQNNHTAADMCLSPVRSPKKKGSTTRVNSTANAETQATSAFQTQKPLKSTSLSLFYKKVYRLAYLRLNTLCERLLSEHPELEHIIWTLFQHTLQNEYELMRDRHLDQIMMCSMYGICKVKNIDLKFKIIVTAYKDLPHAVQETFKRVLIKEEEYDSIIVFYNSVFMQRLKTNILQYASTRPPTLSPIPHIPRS

Rb^P S612P = target: T4, Rb^P S612P (human, UniProt P06400 380-788, S612P)
T4 construct: also called variant 39
T4 sequence (looked up): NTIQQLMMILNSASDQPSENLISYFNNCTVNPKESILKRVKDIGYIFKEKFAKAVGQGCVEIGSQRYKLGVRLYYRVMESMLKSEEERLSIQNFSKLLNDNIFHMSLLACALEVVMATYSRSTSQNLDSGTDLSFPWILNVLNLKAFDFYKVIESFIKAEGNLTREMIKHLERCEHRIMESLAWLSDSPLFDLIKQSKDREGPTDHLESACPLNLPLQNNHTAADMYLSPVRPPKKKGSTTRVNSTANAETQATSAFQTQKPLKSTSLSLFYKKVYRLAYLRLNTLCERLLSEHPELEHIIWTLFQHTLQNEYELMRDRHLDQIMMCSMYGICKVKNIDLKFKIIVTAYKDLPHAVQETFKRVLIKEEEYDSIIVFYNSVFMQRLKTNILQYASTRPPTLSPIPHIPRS

Rb^P V654L = target: T5, Rb^P V654L (human, UniProt P06400 380-788, V654L)
T5 construct: also called variant 47
T5 sequence (looked up): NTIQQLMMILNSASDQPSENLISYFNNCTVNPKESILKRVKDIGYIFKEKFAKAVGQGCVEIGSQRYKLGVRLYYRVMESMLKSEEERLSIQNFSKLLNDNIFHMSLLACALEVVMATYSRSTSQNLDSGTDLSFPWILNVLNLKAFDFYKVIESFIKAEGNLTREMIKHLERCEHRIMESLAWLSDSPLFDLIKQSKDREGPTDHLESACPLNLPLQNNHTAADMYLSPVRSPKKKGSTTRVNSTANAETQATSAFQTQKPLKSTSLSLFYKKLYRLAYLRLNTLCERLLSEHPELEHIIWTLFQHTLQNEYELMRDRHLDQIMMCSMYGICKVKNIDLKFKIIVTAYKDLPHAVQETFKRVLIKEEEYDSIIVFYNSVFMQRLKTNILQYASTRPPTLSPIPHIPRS

B1: TMR-E2F1^TD, peptide of the E2F1 transactivation domain (peptide)
peptide: {TMR}-GEGIRDLFDCDFGDLTPLD
notes: also called E2F^TD; source: synthetic peptide, bought: GenScript
Kd (Rb^P K462T): 30 nM
Kd (Rb^P S474R): 365 nM
Kd (Rb^P Y606C): 15 nM
Kd (Rb^P S612P): 32 nM
Kd (Rb^P V654L): 18 nM

B2: TMR-E7^LxCxE, LxCxE peptide of the E7 oncoprotein from HPV (peptide)
peptide: DLYCYEQLN
modifications: also: TMR label, position not given here
notes: source: synthetic peptide, bought: GenScript
Kd (Rb^P K462T): 8 nM
Kd (Rb^P S474R): 5 nM
Kd (Rb^P Y606C): 7 nM
Kd (Rb^P S612P): 7 nM
Kd (Rb^P V654L): 11 nM
